Source: article PMC9639671 (DNA repair, 2022)

Target: S. cerevisiae Msh2-Msh6 (S. cerevisiae, UniProt P25847 1-964; Q03834 1-1242)
Experiment: SPR

S. cerevisiae Msh2-Msh6, sequence (P25847 whole entry, chain 1 of 2): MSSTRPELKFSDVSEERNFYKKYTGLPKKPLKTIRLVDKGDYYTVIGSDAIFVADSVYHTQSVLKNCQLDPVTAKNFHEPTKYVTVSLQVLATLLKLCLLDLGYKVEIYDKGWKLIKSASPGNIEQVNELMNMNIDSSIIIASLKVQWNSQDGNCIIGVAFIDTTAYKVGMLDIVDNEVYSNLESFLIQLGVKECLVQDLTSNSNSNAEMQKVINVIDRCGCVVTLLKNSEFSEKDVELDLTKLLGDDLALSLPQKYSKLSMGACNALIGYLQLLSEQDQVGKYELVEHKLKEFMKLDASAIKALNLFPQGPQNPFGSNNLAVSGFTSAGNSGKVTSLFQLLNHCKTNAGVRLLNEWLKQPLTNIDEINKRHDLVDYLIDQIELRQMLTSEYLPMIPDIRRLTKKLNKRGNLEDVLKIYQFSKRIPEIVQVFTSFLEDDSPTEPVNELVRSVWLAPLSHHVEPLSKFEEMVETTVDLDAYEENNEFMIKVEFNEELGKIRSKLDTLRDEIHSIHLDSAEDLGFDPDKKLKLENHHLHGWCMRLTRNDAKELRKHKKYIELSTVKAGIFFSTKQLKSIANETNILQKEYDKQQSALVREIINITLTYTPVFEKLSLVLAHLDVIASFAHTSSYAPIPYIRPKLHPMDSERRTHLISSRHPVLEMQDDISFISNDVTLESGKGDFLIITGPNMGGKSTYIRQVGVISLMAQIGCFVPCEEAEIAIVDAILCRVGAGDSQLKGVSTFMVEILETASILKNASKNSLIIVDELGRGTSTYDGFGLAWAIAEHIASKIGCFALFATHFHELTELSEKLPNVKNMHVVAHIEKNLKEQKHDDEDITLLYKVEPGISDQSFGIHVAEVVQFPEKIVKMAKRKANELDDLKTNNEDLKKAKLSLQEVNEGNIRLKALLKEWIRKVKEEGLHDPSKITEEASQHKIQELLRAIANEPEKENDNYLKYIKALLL
S. cerevisiae Msh2-Msh6, sequence (Q03834 whole entry, chain 2 of 2): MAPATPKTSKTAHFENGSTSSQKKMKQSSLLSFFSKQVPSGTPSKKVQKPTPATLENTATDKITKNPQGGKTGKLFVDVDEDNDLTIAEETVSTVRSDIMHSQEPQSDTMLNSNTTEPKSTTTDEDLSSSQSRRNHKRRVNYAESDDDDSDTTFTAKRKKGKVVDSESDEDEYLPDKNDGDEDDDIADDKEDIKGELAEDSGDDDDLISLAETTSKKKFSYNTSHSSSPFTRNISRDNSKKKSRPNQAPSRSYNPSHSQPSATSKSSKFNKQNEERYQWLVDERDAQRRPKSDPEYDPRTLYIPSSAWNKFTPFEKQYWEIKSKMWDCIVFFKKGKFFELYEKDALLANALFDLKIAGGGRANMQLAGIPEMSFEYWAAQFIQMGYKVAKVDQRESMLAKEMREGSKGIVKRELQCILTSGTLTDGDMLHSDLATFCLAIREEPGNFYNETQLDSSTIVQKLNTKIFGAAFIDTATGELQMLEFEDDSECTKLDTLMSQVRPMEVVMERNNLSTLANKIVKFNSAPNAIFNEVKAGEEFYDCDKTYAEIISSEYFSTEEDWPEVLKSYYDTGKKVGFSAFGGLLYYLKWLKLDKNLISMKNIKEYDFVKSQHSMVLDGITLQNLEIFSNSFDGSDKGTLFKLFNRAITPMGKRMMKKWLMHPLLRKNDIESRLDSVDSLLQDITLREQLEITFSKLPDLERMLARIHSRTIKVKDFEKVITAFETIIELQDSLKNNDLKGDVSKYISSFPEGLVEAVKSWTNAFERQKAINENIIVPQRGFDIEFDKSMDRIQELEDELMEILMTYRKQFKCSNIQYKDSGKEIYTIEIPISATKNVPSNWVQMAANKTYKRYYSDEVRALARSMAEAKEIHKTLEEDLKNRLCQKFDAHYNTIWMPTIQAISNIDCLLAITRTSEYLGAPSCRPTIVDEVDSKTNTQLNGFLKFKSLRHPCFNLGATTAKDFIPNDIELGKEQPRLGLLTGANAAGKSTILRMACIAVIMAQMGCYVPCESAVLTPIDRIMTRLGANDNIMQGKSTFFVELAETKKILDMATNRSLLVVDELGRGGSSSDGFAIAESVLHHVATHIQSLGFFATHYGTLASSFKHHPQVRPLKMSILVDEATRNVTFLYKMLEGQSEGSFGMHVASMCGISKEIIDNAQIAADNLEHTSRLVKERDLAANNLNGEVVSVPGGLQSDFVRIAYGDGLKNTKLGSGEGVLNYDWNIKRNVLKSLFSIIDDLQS

Row | binding result | Binder
1 | binds | wild-type S. cerevisiae Mlh1-Pms1 (complex) chain 1: MSLRIKALDASVVNKIAAGEIIISPVNALKEMMENSIDANATMIDILVKEGGIKVLQITDNGSGINKADLPILCERFTTSKLQKFEDLSQIQTYGFRGEALASISHVARVTVTTKVKEDRCAWRVSYAEGKMLESPKPVAGKDGTTILVEDLFFNIPSRLRALRSHNDEYSKILDVVGRYAIHSKDIGFSCKKFGDSNYSLSVKPSYTVQDRIRTVFNKSVASNLITFHISKVEDLNLESVDGKVCNLNFISKKSISPIFFINNRLVTCDLLRRALNSVYSNYLPKGNRPFIYLGIVIDPAAVDVNVHPTKREVRFLSQDEIIEKIANQLHAELSAIDTSRTFKASSISTNKPESLIPFNDTIESDRNRKSLRQAQVVENSYTTANSQLRKAKRQENKLVRIDASQAKITSFLSSSQQFNFEGSSTKRQLSEPKVTNVSHSQEAEKLTLNESEQPRDANTINDNDLKDQPKKKQKLGDYKVPSIADDEKNALPISKDGYIRVPKERVNVNLTSIKKLREKVDDSIHRELTDIFANLNYVGVVDEERRLAAIQHDLKLFLIDYGSVCYELFYQIGLTDFANFGKINLQSTNVSDDIVLYNLLSEFDELNDDASKEKIISKIWDMSSMLNEYYSIELVNDGLDNDLKSVKLKSLPLLLKGYIPSLVKLPFFIYRLGKEVDWEDEQECLDGILREIALLYIPDMVPKVDTSDASLSEDEKAQFINRKEHISSLLEHVLFPCIKRRFLAPRHILKDVVEIANLPDLYKVFERC chain 2: MTQIHQINDIDVHRITSGQVITDLTTAVKELVDNSIDANANQIEIIFKDYGLESIECSDNGDGIDPSNYEFLALKHYTSKIAKFQDVAKVQTLGFRGEALSSLCGIAKLSVITTTSPPKADKLEYDMVGHITSKTTTSRNKGTTVLVSQLFHNLPVRQKEFSKTFKRQFTKCLTVIQGYAIINAAIKFSVWNITPKGKKNLILSTMRNSSMRKNISSVFGAGGMRGLEEVDLVLDLNPFKNRMLGKYTDDPDFLDLDYKIRVKGYISQNSFGCGRNSKDRQFIYVNKRPVEYSTLLKCCNEVYKTFNNVQFPAVFLNLELPMSLIDVNVTPDKRVILLHNERAVIDIFKTTLSDYYNRQELALPKRMCSQSEQQAQKRLKTEVFDDRSTTHESDNENYHTARSESNQSNHAHFNSTTGVIDKSNGTELTSVMDGNYTNVTDVIGSECEVSVDSSVVLDEGNSSTPTKKLPSIKTDSQNLSDLNLNNFSNPEFQNITSPDKARSLEKVVEEPVYFDIDGEKFQEKAVLSQADGLVFVDNECHEHTNDCCHQERRGSTDTEQDDEADSIYAEIEPVEINVRTPLKNSRKSISKDNYRSLSDGLTHRKFEDEILEYNLSTKNFKEISKNGKQMSSIISKRKSEAQENIIKNKDELEDFEQGEKYLTLTVSKNDFKKMEVVGQFNLGFIIVTRKVDNKYDLFIVDQHASDEKYNFETLQAVTVFKSQKLIIPQPVELSVIDELVVLDNLPVFEKNGFKLKIDEEEEFGSRVKLLSLPTSKQTLFDLGDFNELIHLIKEDGGLRRDNIRCSKIRSMFAMRACRSSIMIGKPLNKKTMTRVVHNLSELDKPWNCPHGRPTMRHLMELRDWSSFSKDYEI
2 | binds | Mlh1-K54C-Pms1 mutant complex (complex, S. cerevisiae) chain 1: MSLRIKALDASVVNKIAAGEIIISPVNALKEMMENSIDANATMIDILVKEGGICVLQITDNGSGINKADLPILCERFTTSKLQKFEDLSQIQTYGFRGEALASISHVARVTVTTKVKEDRCAWRVSYAEGKMLESPKPVAGKDGTTILVEDLFFNIPSRLRALRSHNDEYSKILDVVGRYAIHSKDIGFSCKKFGDSNYSLSVKPSYTVQDRIRTVFNKSVASNLITFHISKVEDLNLESVDGKVCNLNFISKKSISPIFFINNRLVTCDLLRRALNSVYSNYLPKGNRPFIYLGIVIDPAAVDVNVHPTKREVRFLSQDEIIEKIANQLHAELSAIDTSRTFKASSISTNKPESLIPFNDTIESDRNRKSLRQAQVVENSYTTANSQLRKAKRQENKLVRIDASQAKITSFLSSSQQFNFEGSSTKRQLSEPKVTNVSHSQEAEKLTLNESEQPRDANTINDNDLKDQPKKKQKLGDYKVPSIADDEKNALPISKDGYIRVPKERVNVNLTSIKKLREKVDDSIHRELTDIFANLNYVGVVDEERRLAAIQHDLKLFLIDYGSVCYELFYQIGLTDFANFGKINLQSTNVSDDIVLYNLLSEFDELNDDASKEKIISKIWDMSSMLNEYYSIELVNDGLDNDLKSVKLKSLPLLLKGYIPSLVKLPFFIYRLGKEVDWEDEQECLDGILREIALLYIPDMVPKVDTSDASLSEDEKAQFINRKEHISSLLEHVLFPCIKRRFLAPRHILKDVVEIANLPDLYKVFERC chain 2: MTQIHQINDIDVHRITSGQVITDLTTAVKELVDNSIDANANQIEIIFKDYGLESIECSDNGDGIDPSNYEFLALKHYTSKIAKFQDVAKVQTLGFRGEALSSLCGIAKLSVITTTSPPKADKLEYDMVGHITSKTTTSRNKGTTVLVSQLFHNLPVRQKEFSKTFKRQFTKCLTVIQGYAIINAAIKFSVWNITPKGKKNLILSTMRNSSMRKNISSVFGAGGMRGLEEVDLVLDLNPFKNRMLGKYTDDPDFLDLDYKIRVKGYISQNSFGCGRNSKDRQFIYVNKRPVEYSTLLKCCNEVYKTFNNVQFPAVFLNLELPMSLIDVNVTPDKRVILLHNERAVIDIFKTTLSDYYNRQELALPKRMCSQSEQQAQKRLKTEVFDDRSTTHESDNENYHTARSESNQSNHAHFNSTTGVIDKSNGTELTSVMDGNYTNVTDVIGSECEVSVDSSVVLDEGNSSTPTKKLPSIKTDSQNLSDLNLNNFSNPEFQNITSPDKARSLEKVVEEPVYFDIDGEKFQEKAVLSQADGLVFVDNECHEHTNDCCHQERRGSTDTEQDDEADSIYAEIEPVEINVRTPLKNSRKSISKDNYRSLSDGLTHRKFEDEILEYNLSTKNFKEISKNGKQMSSIISKRKSEAQENIIKNKDELEDFEQGEKYLTLTVSKNDFKKMEVVGQFNLGFIIVTRKVDNKYDLFIVDQHASDEKYNFETLQAVTVFKSQKLIIPQPVELSVIDELVVLDNLPVFEKNGFKLKIDEEEEFGSRVKLLSLPTSKQTLFDLGDFNELIHLIKEDGGLRRDNIRCSKIRSMFAMRACRSSIMIGKPLNKKTMTRVVHNLSELDKPWNCPHGRPTMRHLMELRDWSSFSKDYEI
